Columns and labels:
C57BL/6 DIO mice [1] = assay: Chronic treatment of DIO mice with anti-GIPR 2.63.1 in combination with Liraglutide, Dulaglutide or Exendin IV; type: in vivo, mouse; settings: 2.63.1 25 mg/kg once a week, Dulaglutide 1 mg/kg twice a week, Liraglutide 0.3 mg/kg once a day, Exendin IV 0.01 mg/kg once a day, i.p.
Description: Male C57BL/6 DIO mice were purchased from Jackson laboratory. Mice were singly housed and continued on high fat diet (60 kcal % fat, Research diet) after arrival. […] All treatments were administrated intraperitoneally. Blood samples were collected from tail vein or cardiac puncture at termination. Serum insulin levels were determined by using mouse high range insulin ELISA (ALPCO Diagnostics). The triglyceride levels were measured using an infinity triglyceride assay kit (Thermo Scientific). Total cholesterol was measured using an infinity total cholesterol kit (Thermo Scientific). Body composition was determined using the minispec whole body composition analyzer (Bruker). For oral glucose tolerance test, mice were fasted for 4 h. Glucose levels were measured and blood samples were taken from the tail vein before the OGTT was initiated. A bolus of glucose (2 g/kg) was given orally by a gavage needle. Glucose levels were measured at 15, 30 and 60 min after glucose administration using a glucose meter (Abbott).

[2] = rapid degradation by the DPP-IV enzyme; cited from earlier work
C57BL/6 DIO male mice = assay: Anti-GIPR 2.63.1 treatment in DIO mice pre-treated with Liraglutide (two-phase study); type: in vivo, mouse; settings: Liraglutide 0.05 or 0.3 mg/kg daily for 2 weeks, then 2.63.1 25 mg/kg weekly added
From the text: FIG. 41 provides an overview of the study used to determine the effects of chronic treatment of diet induced obese (DIO) mice pre-treated with Liragutide with the mouse anti-mouse GIPR Ab (2.63.1). C57BL/6 DIO male mice (17 week old) fed Research Diets D12492 (60% kcal fat) for 13 weeks were randomized into groups. During phase 1 (pre-treatment phase), animals were intraperitoneally dosed daily for 2 weeks with either 1) saline (0.9% sodium chloride), 2) Liraglutide (BAChem #H-6724-0005) at 0.05 mg/kg, 3) Liraglutide at 0.3 mg/kg, or 4) Liraglutide 0.3 mg/kg in combination with a weekly dose of mouse anti-mouse GIPR Ab (2.63.1) in vehicle (10 mM acetate, 9% sucrose, pH 5.2) at 25 mg/kg;ll other groups (1-3) received a weekly dose of vehicle. During phase 2 (experimental stage) mouse anti-mouse GIPR Ab (2.63.1) treatment was initiated in the animals pre-treated with Liraglutide. Blood glucose levels were measured from retro orbital sinus using a glucose meter (Abbott) after mice were fasted for 4 hours before phase 1, end of phase 1, and at the end of the experiment. Insulin levels were determined using mouse high range insulin ELISA (ALPCO Diagnostics). […] Plasma was analyzed on the Olympus chemistry analyzer for liver enzymes, cholesterol, triglycerides, and NEFA. Plasma was analyzed in mouse metabolism multiplex assay (MMHMAG-44K—EMD Millipore) for mouse hormones.

[3] = system: high fat diet (HFD)-induced obese C57BL/6 mice; assay: Mouse pharmacodynamic assay (IPGTT following exogenous [D-Ala2]-GIP) to test anti-murine GIPR antibody 2.63.1; type: in vivo; settings: antibody i.p. the day before IPGTT, [D-Ala2]-GIP 50 nmol/kg i.p.
Description: FIG. 1 provides an overview of the pharmacodynamics assay to test anti-murine GIPR antibodies. Seven week old male high fat diet (HFD)-induced obese C57BL/6 mice were purchased from Jackson Labs. After arrival, mice were continued on high fat diet with Research Diets D12492 (60 kcal % fat) (Research diet) for one to two weeks. Mice were randomized by body weight and were administrated intraperitoneally with testing GIPR antibody or vehicle (10 mM acetate, 150 mM NaCl, pH 5.0) the day before intraperitoneal glucose tolerance test (IPGTT). Mice were fasted for 7 hours and IPGTT was performed immediately following exogenous GIP [D-Ala2]-GIP (50 nmol/kg, Phoenix Pharmaceuticals) given intraperitoneally. Blood samples were taken from tail nick at the times indicated. Glucose was measured using AlphaTrak blood glucose meter (Abbott). Blood insulin level was determined by using Insulin (mouse) ultra-sensitive EIA kit (ALPCO Diagnostics). […] 2.63.1 comprises a light chain with the following sequence: […]

C57BL/6 DIO mice [4] = assay: Chronic treatment of diet induced obese mice with GIPR antibody 2.63.1; type: in vivo, mouse; settings: twice a week i.p. for 6 weeks
Description: FIG. 3 provides an overview of the study used to determine the effects of chronic treatment of diet induced obese (DIO) mice with the 2.63.1 antibody. 18 week old male C57BL/6 DIO mice fed Research Diets D12492 (60 kcal % fat) were randomized into groups. Treatments were given twice a week intraperitoneally for 6 weeks. Blood glucose levels were measured from tail nick using a glucose meter (Abbott) after mice were fasted for 4 hours. Insulin levels were determined using mouse high range insulin ELISA (ALPCO Diagnostics). Triglyceride levels were measured using an Infinity triglyceride assay kit (Thermo Scientific). Total cholesterol was measured using an Infinity total cholesterol kit (Thermo Scientific). Body composition was determined using the minispec whole body composition analyzer (Bruker).
For intraperitoneal glucose tolerance test (IPGTT), mice were fasted for 4 hours. Glucose levels were measured and blood samples were taken from the tail vein before IPGTT was initiated. IPGTT was performed by intraperitoneal injection of glucose (1 g/kg body weight). Glucose levels were measured at 20, 40 and 60 minutes after glucose administration by using a glucose meter (Abbott). FIG. 4.
At termination, liver and epididymal fat was isolated and weighed using a balance. One piece of each tissue was fixed in 10% buffered formalin for 24 hours.

C57BL/6 DIO mice [5] = assay: Chronic treatment of DIO mice with anti-GIPR 2.63.1 in combination with Liraglutide; type: in vivo, mouse; settings: 2.63.1 30 mg/kg twice a week, Liraglutide 0.3 mg/kg once a day, i.p.
Description: FIG. 24 provides an overview of the study used to determine the effects of chronic treatment of diet induced obese (DIO) mice with the mouse anti-mouse GIPR Ab (2.63.1) in combination with the GLP-1R agonist Liraglutide. Male C57BL/6 DIO mice were purchased from Jackson laboratory. Mice were single housed and continued on high fat diet (60 kcal % fat, Research Diets). Mice at 35 weeks old were randomized into groups and received one of the following treatments: A: vehicle (10 mM acetate, 9% sucrose, pH 5.2, and saline); B: 2.63.1 (30 mg/kg, twice a week); C: Liraglutide (0.3 mg/kg, once a day) and D: 2.63.1 (30 mg/kg, twice a week) and Liraglutide (0.3 mg/kg, once a day). All treatments were administrated intraperitoneally.
Blood samples were collected from tail vein or cardiac puncture at termination. Serum insulin levels were determined by using mouse high range insulin ELISA (ALPCO Diagnostics). Serum leptin levels were measured using mouse and rat leptin ELISA kit from BioVendor. The triglyceride levels were measured using an infinity triglyceride assay kit (Thermo Scientific). Total cholesterol was measured using an infinity total cholesterol kit (Thermo Scientific). At termination, liver, epididymal fat and inguinal fat were isolated and weighed using a balance.
Body composition was determined using the minispec whole body composition analyzer (Bruker).
For the oral glucose tolerance test (OGTT), mice were fasted for 4 hours. Glucose levels were measured and blood samples were taken from the tail vein before the OGTT was initiated. A bolus of glucose (2 g/kg) was given orally by a gavage needle. Glucose levels were measured at 15, 30 and 60 min after glucose administration using a glucose meter (Abbott).

Dulaglutide: GLP1R agonist; also known LY2189265, Eli Lilly and Company [reference compound]
effect on fat mass loss of the combination GIPR Ab 2.63.1 with GLP-1R agonist (Liraglutide, Dulaglutide or Exendin IV) (C57BL/6 DIO mice [1]): synergistic effect
effect on weight loss of the combination GIPR Ab 2.63.1 with GLP-1R agonist (Liraglutide, Dulaglutide or Exendin IV) (C57BL/6 DIO mice [1]): synergistic effect

GLP-1: 31-amino acid peptide derived from the proglucagon gene
half-life [2]: approximately 2 minutes

B1: 2.63.1: anti-murine GIPR antibody; light chain SEQ ID NO: 3161, heavy chain SEQ ID NO: 3162 (antibody)
heavy: MGWSYIILFLVATATDVHSQVQLQQPGAELVKPGASVKLSCRASGYTFTSNWMHWVKQRPRQGLEWIGEINPSNGRSNYNEKFKTKATLTVDKSSSTAYMQLSSLTSEDSAVYYCARFYYGTSWFAYWGQGTLVAVSAAKTTPPSVYPLAPGSAAQTNSMVTLGCLVKGYFPEPVTVTWNSGSLSSGVHTFPAVLQSDLYTLSSSVTVPSSTWPSETVTCNVAHPASSTKVDKKIVPRDCGCKPCICTVPEVSSVFIFPPKPKDVLTITLTPKVTCVVVDISKDDPEVQFSWFVDDVEVHTAQTQPREEQFASTFRSVSELPIMHQDWLNGKEFKCRVNSAAFPAPIEKTISKTKGRPKAPQVYTIPPPKEQMAKDKVSLTCMITDFFPEDITVEWQWNGQPAENYKNTQPIMDTDGSYFVYSKLNVQKSNWEAGNTFTCSVLHEGLHNHHTEKSLSHSPGK
light: MKLPVRLLVLMFWIPASSSDVVMTQTPLSLPVSLGDQASISCRSSQSLVHSNGDTYLHWYLQKPGQSPKLLIYKVSNRFSGVPDRFSGSGSGTDFTLKISRVEAADLGVYFCSQSTHVPPFTFGGGTKLEIKRADAAPTVSIFPPSSEQLTSGGASVVCFLNNFYPKDINVKWKIDGSERQNGVLNSWTDQDSKDSTYSMSSTLTLTKDEYERHNSYTCEATHKTSTSPIVKSFNRNEC
weight loss in animals pre-treated with Liraglutide (C57BL/6 DIO male mice): weight loss effect of anti-GIPR can be observed in animals already receiving GLP-1R agonist therapy
GIP induced glucose levels ([3]; FIG. 2A): Antagonized
GIP induced insulin secretion ([3]; FIG. 2B): antagonizes GIP induced insulin secretion
effect on fat mass loss of the combination GIPR Ab 2.63.1 with GLP-1R agonist (Liraglutide, Dulaglutide or Exendin IV) (C57BL/6 DIO mice [1]): synergistic effect
effect on weight loss of the combination GIPR Ab 2.63.1 with GLP-1R agonist (Liraglutide, Dulaglutide or Exendin IV) (C57BL/6 DIO mice [1]): synergistic effect
fasting glucose levels (C57BL/6 DIO mice [4]; 4 hours fast, FIG. 7): lower fasting glucose levels
body weight gain (C57BL/6 DIO mice [4]; FIG. 4): Reduced Body Weight Gain
fat mass (C57BL/6 DIO mice [4]; FIG. 5): lower fat mass
epididymal white adipose tissue weights (C57BL/6 DIO mice [4]; FIG. 6): lower epididymal white adipose tissue weights
insulin levels (C57BL/6 DIO mice [4]; FIG. 8): lower insulin levels
serum total cholesterol (C57BL/6 DIO mice [4]; FIG. 10A): lower serum total cholesterol
serum triglycerides (C57BL/6 DIO mice [4]; FIG. 10B): Lower
hepatocyte microvesicular change and corresponding lipid accumulation (C57BL/6 DIO mice [4]; FIG. 11): reduction in hepatocyte microvesicular change and corresponding lipid accumulation
liver weight (C57BL/6 DIO mice [4]; FIG. 12A): reduced liver weight
liver triglyceride content (C57BL/6 DIO mice [4]; FIG. 12B): reduced
inflammation and infiltrating macrophages surrounding adipocytes in epididymal white adipose tissue (C57BL/6 DIO mice [4]; FIG. 13): reduced inflammation and reduced infiltrating macrophages cells surrounding adipocytes
glucose tolerance (IPGTT) (C57BL/6 DIO mice [4]; glucose 1 g/kg i.p., FIG. 9): improved glucose tolerance
body weight (C57BL/6 DIO mice [5]): prevented weight gain
glucose levels (C57BL/6 DIO mice [5]): lowered glucose
insulin levels (C57BL/6 DIO mice [5]): lowered

Reference: patent US10294303B2, “Method of treating or ameliorating metabolic disorders using binding proteins for gastric inhibitory peptide receptor (GIPR) in combination with GLP-1 agonists” (AMGEN INC., priority 2015, dated 2019)
